Measured values: patent US20160207996A1 (ARGEN X N V, published 2016)
Positions count from the first letter of the chain named.

Columns and labels:
[1] = target: T1, Nt-GCGR-hFc (human, UniProt P47871 26-136); assay: scFv binding ELISA, periplasmic extract on coated Nt-GCGR
T1 construct: domain: N-terminal domain; also called Nt-GCGR-Fc; recombinant N-terminal domain of GCGR; not shown: hFc

[2] = target: T2, hNav1.7-loopA3-llama Fc fusion (human); assay: ELISA, coated hNav1.7-loopA3-llama Fc, mAb titrated
T2 construct: also called hNav1.7-loopA3-llFc; loopA3-llamaFc chimera
T2 chain: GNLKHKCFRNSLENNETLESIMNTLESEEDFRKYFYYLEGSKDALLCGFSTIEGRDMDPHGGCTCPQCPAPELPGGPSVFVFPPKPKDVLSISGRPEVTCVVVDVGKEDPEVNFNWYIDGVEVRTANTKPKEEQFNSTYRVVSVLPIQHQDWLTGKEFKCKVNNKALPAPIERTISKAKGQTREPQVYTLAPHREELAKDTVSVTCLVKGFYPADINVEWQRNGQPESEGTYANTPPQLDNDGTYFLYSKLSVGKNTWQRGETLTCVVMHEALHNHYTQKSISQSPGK
Description: mAbs originating from the loopA3-llama Fc immunization were assayed for their affinity for hNav1.7-loopA3. Therefore, a Maxisorp plate was coated with 10 ng/well of loopA3-llamaFc chimera and incubated overnight at 4° C. The next day, the plate was blocked with PBS+1% casein for 2 hours at RT. Subsequently a concentration gradient of antibodies was applied (range 0.25 pM-66 nM) for another hour. Antibody binding to loopA3 was detected using a HRP-conjugated anti-human Fc antibody (Abcam, Ab7499) (incubation 1 hour at RT, dilution 1/5000 in PBS+0.1% casein), followed by TMB addition and OD620 nm measurement. EC50 values were determined using GraphPad Prism software. For comparison purposes a known hNav1.7-loopA3 binding monoclonal antibody, UCB_932 (US2011/0135662), was tested.

[3] = target: T2, hNav1.7-loopA3-llama Fc fusion; assay: Biacore SPR, antigen on CM5 chip, mAb in flow
Description: (§1) In a further experiment, affinity of the loopA3-binding mAbs was determined using Biacore Surface Plasmon Resonance (SPR) analysis.

[4] = target: T3, GST-tagged hNav1.7-loopA3 (human, UniProt Q15858 269-339); assay: Biacore SPR, antigen on CM5 chip, mAb in flow
T3 construct: monomeric GST-tagged peptide; also called hNav1.7-loopA3-GST; Nav1.7-loopA3-GST; not shown: GST tag
Description: as §1

T1 sequence (P47871 26-136): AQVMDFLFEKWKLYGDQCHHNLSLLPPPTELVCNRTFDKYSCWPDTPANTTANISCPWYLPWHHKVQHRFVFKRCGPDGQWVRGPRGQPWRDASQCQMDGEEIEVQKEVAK
T3 sequence (Q15858 269-339 limits assumed): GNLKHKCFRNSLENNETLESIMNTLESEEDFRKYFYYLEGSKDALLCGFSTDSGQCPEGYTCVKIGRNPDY

B1: scFv B4 (scFv)
chain: EVQVQESGPGLVKPSQTLSLTCTVSGGSITTDYSYWSWIRQPPGKGLEWMGAIAFSDTTYYSPSLKSRTSISRDTSKNQFTLQLSSVTPEDTAVYYCARLSTVAGMDYWGKGTLVTVSSASAAASGSYELTQSPSVSVALRQTAKITCGGNNIGSKSAQWYQQKPGQAPVLVIYADNRRPSEIPERFSGSNSGDTATLTISGAQAEDEADYYCQVWDSSANAAVFGGGTHLTVLG
B1 was tested, and the “ScFv binding ELISA signal” value [1] was 0.476.

B2: scFv C4 (scFv)
chain: QVQLQESGPGLVKPSQTLSLTCTVSGGSITTNYYYWSWIRQPPGKGLEWMGAIAYSGSTYYSPSLKSRTSISRDTSKNQFTLQLSSVTPEDTAVYYCARGYYSGSSLDFGSWGQGTQVTVSSLPVLTQPSAVSVSLGQTARITCQGGNVGSYYTSWYQQKPGQAPVLVIYKDSERPSGIPERFSGSSSGNTATLTVSGAQAEDEGDYYCQVWDSSAAVFGGGTHLTVLG
In the case of B2, the “ScFv binding ELISA signal” value [1] is reported as 0.274.

B3: scFv A8 (scFv)
chain: EVQVQESGPGLVKPSQTLSLTCTVSGESITTNYYYWNWIRQPPGKALEWMGAIGDSGTTWYNPSLKSRTSISRDTSKNQFTLQLISVTPEDTAVYYCARGFYDGSSLDFASWGQGTQVTVSSLSYELTQSPSVSVALRQAAKITCGGNNIASKFVNWYQQKPGQAPILVISKDTNRPSGIPERFSGSNSGNTATLTVSGAQAEDEADYYCQVWDGSAAVFGGGTHLTVLG
With B3 the “ScFv binding ELISA signal” value [1] was 1.7.

B4: scFv A5 (scFv)
chain: ELQLVESGGGLVQPGGSLRLSCAASGSTFSTAAMSWVRQAPGKGLEWVSAISSFGASTSYADSVKGRFTISRDIAKNTLYLQMNSLKPEDAAVYYCANVGLHPSWGFTSGFWGQGTQVTVSSSSALTQPPSVSGSPGKTVTISCAGTSSDVGYGNYVSWYQQLPGMAPKLLIHDVNKRASGITDRFSGSKSGNTASLTISGLQSEDEADYYCASYRRRNEVVFGGGTHLTVLG
In the case of B4, the “ScFv binding ELISA signal” value [1] is reported as 1.31.

B5: scFv C10 (scFv)
chain: EVQLVQPGAELRNPGASVKVSCKASGYTFTAYYIDWVRQAPGQGLEWMGRIDPEDGGTTYEQKFQGRVTFTADTSTSTVYVELSSLRSEDTAVYYCARSTEIPTIRYYGMDYWGKGTPVTVSSASAAASGSYELTQSPSVSVALRQTAKITCGGDNIGSKSAQWYQQKPGQAPVLVIYADSRRPSGIPERFSGSNSGNTATLTISGAQAEDEADYYCQVWDSSANAAVFGGGTHLTVLG
B5 was tested, and the “ScFv binding ELISA signal” value [1] was 0.88.

B6: scFv B2 (scFv)
chain: EVQLQESGGGLVQPGGSLRLSCATSGFTFSNYYMSWVRQAPGKGPEWVSSIYSDLSTTYYADSVKGRFTISRDRAKNTLSLQMNSLKSEDTAVYYCARLSTVAGVDYWGKGTLVTVSSSYELTQSPSVSVALRQTAKITCGGNNIGSKSAQWYQQKPGQAPVLVIYADSRRPSGIPERFSGSNSGNTATLTISGAQAEDEADYYCQVWDSSAAVFGGGTHLTVLG
In the case of B6, the “ScFv binding ELISA signal” value [1] is reported as 0.137.

B7: scFv A7 (scFv)
chain: QLQVVESGGGLVQPGGSLRLSCATSGFTFSNYYMSWVRQAPGKGPEWVSSIYSDLSTTYYADSVKGRFTISRDRAKNTLYLQMNSLKSEDTAVYYCARLSTVAGVDYWGKGTLVTVSSSYELTQSPSVSVALRQTAKITCGGNNIGSKSAQWYQQKPGQAPVLVIYADSRRPSGIPEKFSGSNSGNTATLTISGAQAEDEADYYCQVWDSSANAAVFGGGTHLTVLG
For B7, the “ScFv binding ELISA signal” value [1] was 0.394.

B8: scFv C5 (scFv)
chain: B7 chain with V4L, Q13E, T24A, K178R, A212S, A214G
With B8 the “ScFv binding ELISA signal” value [1] was 1.88.

B9: scFv D3 (scFv)
chain: B7 chain with L2V, V5Q, V105M, N144D, G146E, G158D, S169D, G174E, K178R, N186D
B9 was tested, and the “ScFv binding ELISA signal” value [1] was 0.987.

B10: scFv B8 (scFv)
chain: B7 chain with L2V, V4L, V105M, N143T, V162M, A167G, K178R
In the case of B10, the “ScFv binding ELISA signal” value [1] is reported as 0.205.

B11: scFv D2 (scFv)
chain: B7 chain with Q1E, V4L, T135A, N144D, K178R
B11 was tested, and the “ScFv binding ELISA signal” value [1] was 0.52.

B12: scFv C3 (scFv)
chain: B7 chain with L2V, V4R, V5Q, S169V, G174E, K178R, T191S, I192V
B12 was tested, and the “ScFv binding ELISA signal” value [1] was 0.058.

B13: scFv C1 (scFv)
chain: ELQVVESGGGLVPGGSLRLSCAASGFRVSVNAMSWVRQAPGKGLEWVSHIGSGGITGYADSVKGRFTISRDSAKNTLYLQMNSLKPEDTAVYYCTKRSSGYAWGQGTQVTVSSQAGLTQLPSVSGSPGQKITISCTGSSNNIGAGYSVQWFQQVPGSPPRLLIDGATNRDSGVPDRFSDSRSGSSASLTITGLQAEDEADYYCECYDNSLRGAVFGGGTHLTVLG
B13 was tested, and the “ScFv binding ELISA signal” value [1] was 1.54.

B14: scFv C2 (scFv)
chain: QLQLVESGGGLQQPGGSLRLSCAASGFTFSSYAMGWVRQAPGKGLEWISIILNDGHRTYYTDSVKGRFTISRDNAKDTLSLQMNSLKPEDTAVYFCVKYVLNWAISDWGQGTQVTVSSQSVLTQPPSVSGSPGKTVTISCAGTSSDVGYGNYVSWYQQLPGMAPKLLIYNANKRASGITDRFSASKSGNTASLTISGLQSGDEAVYYCASYRYRDNAVFGGGTHLTVLG
B14 was tested, and the “ScFv binding ELISA signal” value [1] was 0.465.

B15: 2D11 (antibody, human IgG1, V domains shown)
VH: EVQLQESGPGLVKPSQTLSLTCTVSGGSITNSYYASSWIRQPPGKGLEWMGVIIYDGSTYYSPSLKSRTSISRDTSKNQFSLQLSSVTPEDTAVYYCARGLRVAGSYFTDFGTWGQGTQVTVSS
VL: SYELTQSPSVSVALRQAAKITCGGDNIASKHAHWYQQKPGQSPVLVIYKDSNRPSGIPERFSGSNSGNTATLTVSGAQAEDEADYYCQVWDSSANAAVFGGGTHLTVLG
Work on B15 yielded an EC50 [2] of 0.071 nM, a Kd [3] of 0.0375 nM and a koff [3] of 1.26e-05 s⁻¹. For the same binder, the Kd [4] was 0.0879 nM and the koff [4] was 2.13e-05 s⁻¹.

B16: scFv D1 (scFv)
chain: QVQLQESGGGLVQPGGSLRLSCAASGFTFSWYAMSWVRQGPGKGLEWVSGINGGGGSTSYEDSVKGRFTISRDNAKNTLYLEMNSLKPEDTAVYYCARYSDGYSGSYTYTDMDYWGKGTLVSVSSQAVVTQEPSLSVSPGGTVTLTCGLNSGSVTNGNYPGWYQQTPGQAPRALIYSTNSRHSGVPGRYSGSISGNKAALTITGAEPEDEADYYCALWQAAGTVVFGGGTHLTVLG
B16 was tested, and the “ScFv binding ELISA signal” value [1] was 0.1.

B17: scFv A4 (scFv)
chain: QLQVVESGGGLVQPGGSLRLSCAASGFTFDSYWMYWVRQAPGKGLEWLSAINPGGGMTYYADSVKGRFTIARDNAKNTVYLQMNSLKSEDTAVYYCAKELRGSYYYISSEYDYWGQGTQVTVSSLPVLTQPPSVSGTLGKTVTISCAGTSSDIGDYNYVSWYQQLPGTAPKLLIYKVSTRASGIPDRFSGSKSGNTASLTISGLQSEDEADYYCASYRTSNNVVFGGGTHLTVLG
With B17 the “ScFv binding ELISA signal” value [1] was 0.342.
